In article PMC7954740, “Degradation of the low-calorie sugar substitute 5-ketofructose by different bacteria” (Applied Microbiology and Biotechnology, 2021):

What was measured:
Assay in all cases: purified protein
[1] = tested on: O=C(CO)[C@@H](O)[C@H](O)C(=O)CO; type: biochemical, Gluconobacter oxydans; conditions: NADPH co-substrate, pH 7, 35 °C (optimum)
purified protein [2] = substrate: O=C(CO)[C@@H](O)[C@H](O)C(=O)CO; type: biochemical, Gluconobacter oxydans; conditions: NADPH co-substrate, pH 7, 30 °C (optimum)
purified protein [3] = substrate: NC(=O)C1=CN([C@@H]2O[C@H](COP(=O)(O)OP(=O)(O)OC[C@H]3O[C@@H](n4cnc5c(N)ncnc54)[C@H](OP(=O)(O)O)[C@@H]3O)[C@@H](O)[C@H]2O)C=CC1; type: biochemical, Clostridium pasteurianum; conditions: 5-KF co-substrate, pH 6, 40 °C (optimum), varied: cofactor
purified protein [4] = substrate: O=C(CO)[C@@H](O)[C@H](O)C(=O)CO; type: biochemical, Clostridium pasteurianum; conditions: NADPH co-substrate, pH 6, 40 °C (optimum)
purified protein [5] = substrate: NC(=O)C1=CN([C@@H]2O[C@H](COP(=O)(O)OP(=O)(O)OC[C@H]3O[C@@H](n4cnc5c(N)ncnc54)[C@H](OP(=O)(O)O)[C@@H]3O)[C@@H](O)[C@H]2O)C=CC1; conditions: 5-KF co-substrate, pH 7.0, 30 °C, varied: cofactor
purified protein [6] = substrate: O=C(CO)[C@@H](O)[C@H](O)C(=O)CO; conditions: NADPH co-substrate, pH 7.0, 30 °C, potassium phosphate

GOX0644 (Gluconobacter oxydans 621H)
Km [1]: 4000 ± 800 µM
kcat [1]: 18.9 ± 1.2 s⁻¹

B1: GOX1432 (Gluconobacter oxydans 621H) (protein)
chain: MITRETLKSLPANVQAPPYDIDGIKPGIVHFGVGNFFRAHEAFYVEQILEHAPDWAIVGVGLTGSDRSKKKAEEFKAQDCLYSLTETAPSGKSTVRVMGALRDYLLAPADPEAVLKHLVDPAIRIVSMTITEGGYNINETTGAFDLENAAVKADLQNPEKPSTVFGYVVEALRRRRDAGGKAFTVMSCDNLRHNGNVARKAFLGYAKARDPELAKWIEENATFPNGMVDRITPTVSAEIAKKLNAASGLDDDLPLVAEDFHQWVLEDRFANGRPPLEKAGVQLVDDVTDWEHVKIRMLNAGHITLCFPGILVGYENVDDAIEDKDLRGNLENYLNKDVIPTLKAPPGMTLEGYRDSVISRFSNKAMSDQTLRIASDGCSKIQVFWTETVRRAIECKRDLSRIAFGIASYLEMLRGRDEKGGTYESSEPTYGEAQKKLAKADDFESALKLPAFDGWRDLDTSELDQKVIALRKVIREKGVKAAIPA
Km (purified protein [2]): 42000 ± 5400 µM
kcat (purified protein [2]): 214.6 ± 7.5 s⁻¹

B2: CP-AKR (Clostridium pasteurianum DSM 525 = ATCC 6013) (protein)
chain: MVKSIKDVITLNNGVEIPQHGFGVYLITDEEKAYKAINKALEVGYRAFDTAQFYENEPLLGKILNESSLSRDELFITTKVANYNQGYDSTLSTVEQSLKDLRVDQLDLLLIHWPSKKRFFETWRAMEKLYNEKLVKAIGVSNYEIHHLEELISNSDIKPVIDQVESHPYLIQQELKDYVDKNNIAFQAWSPLGRGAVLKDPIIKIIAEQHNKSIAQVIIRWHLQKGNIVIPKSITPSRIEENADVYDFALTEEEMKIIDALNRAERTGDDPDSIYFQM
Km (purified protein [3]): 12.4 ± 3.8 µM
Km (purified protein [4]): 1300 ± 200 µM
kcat (purified protein [4]): 29.3 ± 4.3 s⁻¹

B3: TM-KFR (Tatumella morbirosei) (protein)
chain: AEQQNFLSELTGSFSSPCNENPTVAMMEEAYRHQGINARYINCDVGKQQLEMAVAGAKAMGWRGFNCSIPNKQAILSYIDEVGTSAKVIGAVNCVIIREGKLTGENTDGKGFVEALKQQIDPEGKKLALLGAGGAARAIAVESALAGVSEITIINRDKAKGEALAELINANTDATATYVEWSSGLKVDKNFDILVNATSVGLDDAEAMPDIDTDSLSEELFVADVIPNPPQTALLRAASDKGCRTLNGLNMLVNQGALNLAYWFDTTADKAPMRKVLQTLFTG
Km (purified protein [5]): 20.4 ± 11.5 µM
Km (purified protein [6]): 6400 ± 600 µM
kcat (purified protein [6]): 913.9 ± 85.2 s⁻¹
